{"source": "patent US9840693B2", "about": "“Polypeptide hydrogels and uses related thereto” (Emory University, priority 2014, dated 2017)", "key": {"[1]": {"experiment": "Self-assembly of peptides into hydrogel at physiologic pH and osmolarity", "type": "physicochemical", "settings": "for Self-Assembly: peptide alone at 1 % w/v; for self-assembly into a hydrogel when mixed with peptide hydrogel R: mixed with R at a 1:10 ratio; for self-assemble at physiologic pH and osmolarity: peptide alone", "excerpt": "JAG-1 (CDDYYYGFGCNKFCRPR)(SEQ ID NO: 1) can be incorporated into the self-assembling peptides to generate bioactive scaffolds with the potential to regulate Notch signaling in a ligand density dependent manner. The self-assembling sequence RADA (or R) (RARADADARARADADA)(SEQ ID NO: 2) with a 7 glycine linker following the terminal alanine is followed by the active sequence of the Notch ligand Jagged-1 (JAG-1) to create the fusion peptide (RJ). As a control, the JAG-1 portion may be replaced with the scrambled sequence (RCGPDCFDNYGRYKYCF)(SEQ ID NO:4) (RS) with no known cell surface binding site can be used as a control to check for the specificity of JAG 1 in activating Notch-1 signaling. […] These peptide scaffolds self-assemble at physiological pH and osmolarity (in 295 mM sucrose solution) into nanofiber hydrogels. After synthesis, the peptides can be purified by high pressure liquid chromatography on reverse-phase columns. Purity can be assessed by HPLC and the presence of a correct composition by amino acid analysis.\nThe self-assembling peptide (R) and the peptides with Jag-1 (RJ) or scrambled (RS) attached are weighed out to create hydrogels of 1-3% w/v, i.e., hydrogels with varying % concentration from 1 to 3% w/v peptide wherein R is combined with RJ or RS in a ratio of 1:10.\nA sucrose solution (295 mM) is added to the peptides and sonicated. The RJ or RS peptide solutions are mixed with the R solution at 1:10 and allowed to form the hydrogel. The time required to form the hydrogel depends on the concentration of the gel. In certain embodiments, the disclosure relates to the synthesis of self assembling peptides which contain the active ligand JAG-1 attached to it. This enables easy dose manipulation of JAG-1 to achieve Notch-1 activation."}, "[2]": {"experiment": "Atomic force microscopy measurement of Young's modulus of hydrogels", "type": "physicochemical", "settings": "in comparison with unmodified hydrogels at both 1 and 2% w/v", "method": "(§1) Peptides have been created containing a ligand for Notch-1 activation that self assembles into a hydrogel. For determination of swelling ratio, the hydrogels were created in a […] total volume and allowed to swell in 295 mM sucrose solution. After 24 h, the wet weight of the gels was measured. The gels were then lyophilized and the dry weight noted. Swelling ratio was calculated as the (wet weight−dry weight)/wet weight. […] The average Young's modulus for 1% and 2% hydrogels was 500 Pa and 1800 Pa respectively (FIG. 1A).\nCardiac progenitor cells (CPCs) were isolated from 2 month old male Sprague Dawley rats by digesting the heart with Collagenase followed by magnetic sorting for cKit positive cells. The CPCs were cultured on Ham's F12 supplemented with FBS, LIF, bFGF, L-Glutamine and antibiotics. Single cell cloning was performed by limiting dilution to obtain CPCs with >90% expression of cKit and the cardiac transcription factors nkx2-5 and gata-4. […] The Young's modulus of the hydrogels was determined using an MFP-3DBIO atomic force microscope (Asylum Research; Santa Barbara, Calif.), with a 4.74 μm diameter bead tippedsilicon nitride cantilever."}, "[3]": {"experiment": "Swelling ratio of hydrogels", "type": "physicochemical", "settings": "n=3", "method": "as §1"}, "[4]": {"system": "Notch1", "experiment": "Notch1 activation in CHO cells with Notch1-responsive YFP expression, 2D culture with peptide in media", "type": "cell-based", "settings": "media containing peptide at 40 μm, 48 h", "method": "(§2) CHO cells with Notch1-responsive YFP expression were cultured in media containing 20 or 40 μm R, RS or RJ for 48 h. […] These cells were also cultured in 3D in 1-3% w/v hydrogels composed of R, RS or RJ for 48 h."}, "[5]": {"system": "Notch1", "experiment": "Notch1 activation in CHO cells with Notch1-responsive YFP expression, 3D culture in hydrogels", "type": "cell-based", "settings": "48 h", "method": "as §2"}, "[6]": {"system": "Cardiac progenitor cells (CPCs)", "experiment": "qPCR gene expression of CPCs cultured in hydrogels", "type": "cell-based, rat", "settings": "48 h", "method": "Cardiac progenitor cells (CPCs) were isolated from 2 month old male Sprague Dawley rats by digesting the heart with Collagenase followed by magnetic sorting for cKit positive cells. The CPCs were cultured on Ham's F12 supplemented with FBS, LIF, bFGF, L-Glutamine and antibiotics. Single cell cloning was performed by limiting dilution to obtain CPCs with >90% expression of cKit and the cardiac transcription factors nkx2-5 and gata-4. CPCs were cultured in self assembling hydrogels of various concentrations (1-3% w/v) with either empty, scrambled or JAG-1 peptide in 1:10 ratio for 48 hrs in Millicell Insets. qRT-PCRs were performed using Power SYBR green on the StepOne Plus Applied Biosystems machine. The Young's modulus of the hydrogels was determined using an MFP-3DBIO atomic force microscope (Asylum Research; Santa Barbara, Calif.), with a 4.74 μm diameter bead tippedsilicon nitride cantilever.\nCPCs were clonally expanded and characterized to be >96% Notch1+, >90% c-Kit+, nkx2-5+(nk2 homeobox 5) and gata4+(GATA binding protein 4). CPCs were cultured in 1 or 2% (w/v) SAP hydrogels (1R, 1RS, 1RJ or 2R, 2RS, 2RJ) for 48 h."}, "[7]": {"system": "embryoid bodies (EBs) from mouse embryonic stem cells", "experiment": "qPCR gene expression of mouse embryoid bodies cultured in 1% hydrogels", "type": "cell-based", "settings": "mouse EBs in 1% hydrogels", "method": "To determine if gene expression changes in response to hydrogel-mediated Notch1 activation were conserved between stem/progenitor cells, day 2 embryoid bodies (EBs) from mouse embryonic stem cells were cultured in low concentration (1%) hydrogels for 48 h."}}, "note": "“Also recorded” adds a separate entry of the source."}
{"substance": "H2N-RARADADARARADADA-OH (H-RARADADARARADADA-OH) [unmodified/empty control]", "values": [{"measurement": "Self-Assembly", "setting": "[1]", "value": "yes"}]}
{"substance": "RCGPDCFDNYGRYKYCF [SCR-1]", "values": [{"measurement": "self-assembly into a hydrogel when mixed with peptide hydrogel R", "setting": "[1]", "value": "self-assembles into a hydrogel"}, {"measurement": "self-assemble at physiologic pH and osmolarity", "setting": "[1]", "value": "do not self-assemble"}]}
{"substance": "RARADADARARADADA(G7)(JAG-1) (RARADADARARADADAGGGGGGGCDDYYYGFGCNKFCRPR) [RJ]", "values": [{"measurement": "Self-Assembly", "setting": "[1]", "value": "no"}, {"measurement": "effect of addition of peptide to the SAP on Young's modulus", "setting": "[2]", "value": "did not alter the Young's modulus"}, {"measurement": "effect of peptide addition on network structure (swelling ratio)", "setting": "[3]", "value": "no significant effect"}, {"measurement": "Notch1 activation (YFP expression)", "setting": "[4]", "value": "significant increase"}, {"measurement": "Notch1 activation (YFP expression)", "setting": "[5]; 2% w/v hydrogel", "value": "maximum Notch1 activation; also recorded: highest levels of Notch1 activation"}, {"measurement": "Notch1 activation (YFP expression)", "setting": "[5]; further increase to 3% w/v hydrogel", "value": "did not promote Notch1 activation"}, {"measurement": "Notch1 signaling in CPCs", "setting": "[6]; 1% hydrogels", "value": "activates Notch1 signaling"}, {"measurement": "Notch1 signaling in CPCs", "setting": "[6]; 2% hydrogels", "value": "activates Notch1 signaling"}, {"measurement": "endothelial and smooth muscle gene expression", "setting": "[6]; CPCs in 1% hydrogels", "value": "promotes"}, {"measurement": "expression of Hey1 (Notch1 downstream target)", "setting": "[6]; CPCs in 1 or 2% hydrogels, qPCR", "value": "increased expression"}, {"measurement": "cardiac gene expression", "setting": "[6]; CPCs in 2% hydrogels", "value": "promotes"}, {"measurement": "endothelial and smooth muscle gene expression", "setting": "[7]", "value": "promotes"}]}
{"substance": "RARADADARARADADA(G7)(SCR-1) (RARADADARARADADAGGGGGGGRCGPDCFDNYGRYKYCF) [RS, reference compound]", "values": [{"measurement": "Self-Assembly", "setting": "[1]", "value": "no"}, {"measurement": "effect of addition of peptide to the SAP on Young's modulus", "setting": "[2]", "value": "did not alter the Young's modulus"}, {"measurement": "effect of peptide addition on network structure (swelling ratio)", "setting": "[3]", "value": "no significant effect"}]}
{"substance": "CDDYYYGFGCNKFCRPR [JAG-1]", "values": [{"measurement": "self-assembly into a hydrogel when mixed with peptide hydrogel R", "setting": "[1]", "value": "self-assembles into a hydrogel"}, {"measurement": "self-assemble at physiologic pH and osmolarity", "setting": "[1]", "value": "do not self-assemble"}]}
